From patent publication US7799901B2, “Modulators of the function of FAS receptors and other proteins” (Yeda Research and Development Co. Ltd., priority 1995, dated 2010)
“Also recorded” adds a separate entry of the source.

Experiments:
MORT-1 = target: T1, MORT-1 (Homo sapiens, UniProt Q13158, G32V); experiment: Two-hybrid β-galactosidase filter assay (FIG. 5), binding to MORT-1; parameters: the full-length MORT-1 cDNA was used (MORT 1); expressed in transfected cells; host or cells: SFY526 yeast; settings: two hybrid test
T1 sequence (Q13158 with tags, fused parts or gaps G32V): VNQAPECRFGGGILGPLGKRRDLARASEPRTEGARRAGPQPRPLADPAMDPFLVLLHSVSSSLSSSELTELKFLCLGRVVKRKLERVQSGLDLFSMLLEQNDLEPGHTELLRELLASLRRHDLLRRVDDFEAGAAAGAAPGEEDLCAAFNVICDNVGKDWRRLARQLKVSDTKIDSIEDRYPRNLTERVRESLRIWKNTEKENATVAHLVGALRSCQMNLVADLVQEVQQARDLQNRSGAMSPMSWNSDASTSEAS
Experimental: The yeast two-hybrid test was further applied to evaluate the specificity of binding of MACH to MORT-1, in particular, to define the region in MORT-1 to which MACH binds, as well as to determine which of the MACH ORFs interacts with MORT-1, the procedures being as set forth herein above in Examples 1 and 2. Briefly, various MORT-1 and MACH constructs were prepared for testing the interaction of the proteins encoded by the Gal4 DNA-binding domain and activation domain constructs within transfected SFY526 yeast cells as assessed by the β-galactosidase expression filter assay. The DNA-binding domain constructs were prepared in pGBT9 vectors and the activation domain constructs were prepared in pGAD-GM vectors. For the activation domain constructs, the full-length MACH cDNA was used (MACH), as was a construct encoding only the ORF-B (MACH B) region. Control activation domain constructs were those containing the full-length MORT-1 coding sequence (MORT 1, positive control) and those having no inserts, i.e., “empty” vectors (pGAD-GM). For the DNA-binding domain constructs, the full-length MORT-1 cDNA was used (MORT 1), as were constructs encoding only the MORT-1 […] (MORT-1DD aa 130-245). […] In the assay, the development of color was determined, where the greater the color development, the greater the interaction between the constructs encoded by the DNA-binding domain and activation domain; Color development was depicted by symbols, where “+++” and “+” indicate the development of a strong color within 30 and 90 min. of the assay, respectively, and “−−−” indicates the lack of development of color within 24 hrs. of the assay. […]
In FIG. 5, there is shown the results of the interaction of MORT-1 and MACH within transfected yeast cells. […] Their interaction was assessed by a β-galactosidase expression filter assay as described in Boldin et al (1995b). […]

HeLa cells = experiment: Cell death on overexpression of MACH isoforms in HeLa cells; format: cell-based; settings: FIG. 19
Experimental: In brief, 293-EBNA cells, MCF7 human breast carcinoma cells and HeLa HtTA-1 cells were grown in Dulbecco's modified Eagle's minimal essential medium supplemented with 10% fetal calf serum, nonessential amino acids, 100 U/ml penicillin and 100 μg/ml streptomycin. Cell tissue culture dishes (5×10^5 293-EBNA cells, 3×10^5 s MCF7 cells or 3×10^5 HeLa cells in 6-cm dishes) were transiently transfected, using the calcium phosphate precipitation method, with the cDNAs of the indicated proteins together with the β-galactosidase expression vector. In the experiments presented in FIGS. 14A-D and 15, each dish was transfected with 3.5 μg of the indicated MACH construct and 1.5 μg of pSV-β-gal. In the experiments presented in FIGS. 16A-D and 17-19, each dish was transfected with 2.5 μg of the indicated MACH or MORT1 construct (or, as control, empty vector) and 1.5 μg of pSV-β-gal. The cells were rinsed 6 to 10 h after transfection. The 293-EBNA and MCF7 cells were incubated for a further 18 h without additional treatment. The HeLa cells were incubated for 26 h after transfection and-then for 5 h in the presence of either anti-Fas.APO1 antibody (CH11, 0.5 μg/ml) or TNF (100 ng/ml), together with cycloheximide (10 μg/ml). The extent of cell death at the end of the incubation periods was assessed by determination of β-galactosidase expression, as described by Kumar et al, 1994.
To examine the involvement of the CED3/ICE homology region within the MACHα isoforms in their apoptopic effects, cells were transfected with the expression vector for the MACHβ1 isoform, which lacks the CED3/ICE homology region, as well as with expression vectors for MACHα3, which lacks an N-terminal part of the region, and with expression vectors for MACHα1 (C360S) and for a C-terminally truncated mutant of MACHα1 (MACHα1 (1-415)), which lacks one of the residues believed to be critical for CED3/ICE protease function (corresponding to Ser347 in ICE). […]

Molecule: MACHα1: MACH isoform, cDNA SEQ ID NO: 14, amino acid SEQ ID NO: 7; contains CED3/ICE homology region
- binding to MORT-1 in transfected yeast (MORT-1): scored clearly positive

B1: MACHβ1: MACH isoform, cDNA SEQ ID NO: 4, amino acid SEQ ID NO: 5; lacks the CED3/ICE homology region (protein)
chain: MDFSRNLYDIGEQLDSEDLASLKFLSLDYIPQRKQEPIKDALMLFQRLQEKRMLEESNLSFLKELLFRINRLDLLITYLNTRKEEMERELQTPGRAQISAYRVMLYQISEEVSRSELRSFKFLLQEEISKCKLDDDMNLLDIFIEMEKRVILGEGKLDILKRVCAQINKSLLKIINDYEEFSKERSSSLEGSPDEFSNDFGQSLPNEKQTSGILSDHQQSQFCKSTGESAQTSQH
- cytotoxicity in transfected HeLa cells (HeLa cells): more pronounced; also recorded: rather significant cytoxic effect
- binding to MORT-1 in transfected yeast (MORT-1): binds

B2: MACHα1 (C360S): MACHα1 mutant in which the catalytic cysteine Cys360 is replaced by Ser (protein)
chain: MDFSRNLYDIGEQLDSEDLASLKFLSLDYIPQRKQEPIKDALMLFQRLQEKRMLEESNLSFLKELLFRINRLDLLITYLNTRKEEMERELQTPGRAQISAYRVMLYQISEEVSRSELRSFKFLLQEEISKCKLDDDMNLLDIFIEMEKRVILGEGKLDILKRVCAQINKSLLKIINDYEEFSKERSSSLEGSPDEFSNGEELCGVMTISDSPREQDSESQTLDKVYQMKSKPRGYCLIINNHNFAKAREKVPKLHSIRDRNGTHLDAGALTTTFEELHFEIKPHDDCTVEQIYEILKIYQLMDHSNMDCFICCILSHGDKGIIYGTDGQEAPIYELTSQFTGLKCPSLAGKPKVFFIQASQGDNYQKGIPVETDSEEQPYLEMDLSSPQTRYIPDEADFLLGMATVNNCVSYRNPAEGTWYIQSLCQSLRERCPRGDDILTILTEVNYEVSNKDDKKNMGKQMPQPTFTLRKKLVFPSD
- cytotoxicity in transfected HeLa cells (HeLa cells): somewhat cytotoxic
- binding to MORT-1 in transfected yeast (MORT-1): bound
